The labels stand for the following.
B1: CRY1^(PHR WT) in pGADT7 (AD) [Arabidopsis thaliana] / HsFA3^WT in pGBKT7 (BD) [Arabidopsis thaliana] (parent complex)
chain 1: MSGSVSGCGSGGCSIVWFRRDLRVEDNPALAAAVRAGPVIALFVWAPEEEGHYHPGRVSRWWLKNSLAQLDSSLRSLGTCLITKRSTDSVASLLDVVKSTGASQIFFNHLYDPLSLVRDHRAKDVLTAQGIAVRSFNADLLYEPWEVTDELGRPFSMFAAFWERCLSMPYDPESPLLPPKKIISGDVSKCVADPLVFEDDSEKGSNALLARAWSPGWSNGDKALTTFINGPLLEYSKNRRKADSATTSFLSPHLHFGEVSVRKVFHLVRIKQVAWANEGNEAGEESVNLFLKSIGLREYSRYISFNHPYSHERPLLGHLKFFPWAVDENYFKAWRQGRTGYPLVDAGMRELWATGWLHDRIRVVVSSFFVKVLQLPWRWGMKYFWDTLLDADLESDALGWQYITGTLPDSREFDRIDNPQFEGYKFDPNGEYVRRWLPELSRLPTDWIHHPWNAPESVLQAAGIELGSNYPLPIVGLDEAKARLHEALSQMWQLEAASRAAIENGSEE
chain 2: not shown

In the first test the parent is B1. The test is described as follows: yeast two-hybrid (beta-galactosidase, Miller units); n=3; parent: 280; read off a plot.
As for chain 1 K332A, chain 1 R335A, the response was around 300 Miller Units.

Variants of B1 are the subject of the next test. Described as above. This is another data set of the same source.
As for chain 1 K332E, the response is around 210 Miller Units. As for chain 1 K332E, chain 1 R335E, the response was around 280 Miller Units. chain 1 R335E: the response was around 210 Miller Units.

The variants in another test derive from B1. The test is described as above. This is another data set of the same source.
Regarding chain 1 R211A, chain 1 R435A, the response is around 150 Miller Units.
